{
  "source": "patent US20240374764A1",
  "about": "“COMBINATION RADIOTHERAPY” (Telix Pharmaceuticals (Innovations) Pty Ltd., priority 2021, published 2024)",
  "key": {"[1]": {"settings": "previous clinical studies, cited from earlier work"}, "DNA-PK": {"target": "DNA-PK (Homo sapiens, UniProt P78527)", "settings": "as demonstrated by crystallographic and enzyme kinetics studies; cited from earlier work"}, "SK-RC-52 xenografts [2]": {"system": "SK-RC-52 xenografts", "test": "In vivo efficacy in SK-RC-52 metastatic renal cell carcinoma xenograft model", "parameters": "species or system Female BALB/c nude mice", "settings": "number of mice (% of group, n=4) at conclusion of study; 177Lu antibody 6 MBq single i.v. dose day 0; M3814 50 mg/kg oral daily where combined", "description": "Tumour growth curves were monitored in mice for up to 6 months or ethical limits."}, "SK-RC-52 xenografts [3]": {"system": "SK-RC-52 xenografts", "settings": "mouse, in vivo", "quoted_text": "Female BALB/c nude mice with established SK-RC-52 xenografts (approx. 100 mm^3) were used for this study. Mice were split into one of the following 3 groups: • Vehicle control (oral) n=4; • ^177Lu-anti-CAIX antibody only (DOTA-GmAb, as described herein; 162 μCi/6 MBq) n=4; • 50 mg/kg M3814 DNA-PKi orally dosed and ^177Lu-anti-CAIX antibody (162 μCi/6 MBq) n=4.\nAnimals were treated as follows: • Day −14: injection of 60 female mice with RK-RC-52 metastatic RCC cells in matrigel; • Day 0: ^177Lu-anti-CAIX antibody i.v. administration, single dose once only • Day 1-7: daily oral dosing of vehicle/M3814 @ 50 mg/kg.\nSPECT/MRI imaging was conducted at days 3 and 6 to determine biodistribution."}},
  "data": [
    {"molecule": "^177Lu-girentuximab: chimeric monoclonal antibody girentuximab (cG250, TLX250) specific for CAIX, radiolabelled with lutetium-177 via a DOTA linker", "values": [
      {"measurement": "MTD", "setting": "[1]; single agent", "result": 2405, "unit": "MBq/m^2"},
      {"measurement": "tolerability of follow on dosing at 75% of the previous dose", "setting": "[1]", "result": "well tolerated"}
    ]},
    {"molecule": "COc1ccc([C@@H](O)c2cc(-c3ncnc4cc(N5CCOCC5)ccc34)c(F)cc2Cl)nn1", "note": "[M3814, (S)-[2-chloro-4-fluoro-5-(7-morpholin-4-yl-quinazolin-4-yl)-phenyl]-(6-methoxypyridazin-3-yl)-methanol]", "values": [
      {"measurement": "inhibition of DNA-PK (mode, potency, selectivity)", "setting": "DNA-PK", "result": "potent and selective ATP-competitive inhibitor of DNA-PK"}
    ]},
    {"molecule": "^177Lu-anti-CAIX antibody: 177Lu-labelled DOTA conjugate of the anti-CAIX antibody GmAb (girentuximab)", "values": [
      {"measurement": "Complete Remission", "setting": "SK-RC-52 xenografts [2]", "result": "1 (25%)"},
      {"measurement": "Progressive Disease", "setting": "SK-RC-52 xenografts [2]", "result": "3 (75%)"},
      {"measurement": "SPECT imaging: delivery of radiation to the tumour", "setting": "SK-RC-52 xenografts [3]", "result": "specifically delivers cytotoxic radiation to the tumour over a prolonged period"}
    ]}
  ]
}
